This note sets out measurements from publication PMC4303326.

Holding throughout (assay): electrochemical DNA sensor
One series deals with thrombin (bovine, UniProt P00735;P00735 318-366;367-625).
The target in series [1] is T1, gene 32 protein (g32p), full-length (bacteriophage T4, UniProt P03695 1-301).
T1 sequence: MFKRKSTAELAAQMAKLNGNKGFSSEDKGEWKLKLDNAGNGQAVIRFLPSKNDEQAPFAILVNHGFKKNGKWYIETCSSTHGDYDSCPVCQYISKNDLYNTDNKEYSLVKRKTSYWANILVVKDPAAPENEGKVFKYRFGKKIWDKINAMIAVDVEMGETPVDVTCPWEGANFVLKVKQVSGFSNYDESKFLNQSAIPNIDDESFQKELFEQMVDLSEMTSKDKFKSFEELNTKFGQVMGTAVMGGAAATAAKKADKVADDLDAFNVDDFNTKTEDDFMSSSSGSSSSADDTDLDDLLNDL

The target in series [2] is T1, gene 32 protein (g32p), full-length. The source holds these as a separate data set.

As for TTTTTTTTTTTTTTTTTTTTT (ssDNA, 5' thiol; 3' methylene blue) [(dT)21 probe], the binding result in the series with thrombin is reported as “no binding”. The Kd in series [1] was about 100 nM.

B1: (dT)21/(dA)21 duplex (dsDNA)
DNA 1: TTTTTTTTTTTTTTTTTTTTT
DNA 2: AAAAAAAAAAAAAAAAAAAAA
modifications: 5' thiol; 3' methylene blue on dT strand
In the case of B1, the binding result in series [2] is “no binding”.

Usually Kd stands for a measure of binding affinity in units of concentration. Read a high Kd as weaker binding.
